Laboratory results taken from patent publication US20040258659A1 (UNIVERSITE PIERRE ET MARIE CURIE PARIS VI, published 2004).
Where a chain is given by its changes, count along the chain named.

B1: LSPVSSQSSA-RANTES (10-68) (P1) (ligand, human)
chain: LSPVSSQSSACCFAYIARPLPRAHIKEYFYTSGKCSNPAVVFVTRKNRQVCANPEKKWVREYINSLEMS
notes: range 33-91; Made by total chemical synthesis; The range 10-68 counts on mature RANTES, not on the precursor; also called mutant P1; variant P1
B2: FSPLSSQSSA-RANTES (10-68) (P2) (ligand, human)
chain: B1 chain with L1F, V4L
notes: range 33-91; Made by total chemical synthesis; The range 10-68 counts on mature RANTES, not on the precursor; also called mutant P2; RANTES P2

What was measured:
CCR5 [1] = molecular target: T1, CCR5 (UniProt P51681 1-352, limits assumed); assay: competitive radioligand binding on whole CHO-CCR5 cells at 4 C, 12 pM [125I]MIP-1α tracer
T1 construct: whole, on cells; also called CHO-CCR5; HEK-CCR5
T1 sequence (P51681 whole entry): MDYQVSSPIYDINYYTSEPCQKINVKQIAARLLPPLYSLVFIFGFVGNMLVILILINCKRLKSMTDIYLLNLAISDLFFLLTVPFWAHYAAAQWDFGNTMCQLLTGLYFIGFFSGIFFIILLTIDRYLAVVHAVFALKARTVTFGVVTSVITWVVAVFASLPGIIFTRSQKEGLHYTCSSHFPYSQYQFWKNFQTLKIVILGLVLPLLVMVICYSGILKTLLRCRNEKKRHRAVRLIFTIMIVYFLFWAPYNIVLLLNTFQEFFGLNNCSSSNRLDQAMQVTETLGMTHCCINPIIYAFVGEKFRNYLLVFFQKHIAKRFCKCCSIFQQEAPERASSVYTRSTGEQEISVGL
Method: Assays were carried out essentially as (11). CHO—CCR5 cells were seeded into 24 well plates (8×10⁴ cells/well). […] After incubation, cells were washed, lysed, and the lysaes counted using a Beckman Gamma 4000 scintillation counter. Determinations were performed in duplicate and IC₅₀ values derived from monophasic curves (competition binding; one-site) fitted using Prism software (GraphPad).

CCR5 [2] = molecular target: T1, CCR5; assay: cell-based or functional assay

Row | Binder | IC50 (CCR5 [1]) | IC50, R5-tropic envelope-mediated cell fusion assay (CCR5 [2])
1 | B1 | 300 pM | 7000 pM
2 | B2 | 200 pM | 600 pM
